This note sets out measurements from patent US20020127673A1 (REGENTS OF THE UNIVERSITY OF MICHIGAN, published 2002).

Sequences and labels used below:
B1: caspase-4 (enzyme, UniProt P49662 1-377, looked up)
chain: MAEGNHRKKPLKVLESLGKDFLTGVLDNLVEQNVLNWKEEEKKKYYDAKTEDKVRVMADSMQEKQRMAGQMLLQTFFNIDQISPNKKAHPNMEAGPPESGESTDALKLCPHEEFLRLCKERAEEIYPIKERNNRTRLALIICNTEFDHLPPRNGADFDITGMKELLEGLDYSVDVEENLTARDMESALRAFATRPEHKSSDSTFLVLMSHGILEGICGTVHDEKKPDVLLYDTIFQIFNNRNCLSLKDKPKVIIVQACRGANRGELWVRDSPASLEVASSQSSENLEEDAVYKTHVEKDFIAFCSSTPHNVSWRDSTMGSIFITQLITCFQKYSWCCHLEEVFRKVQQSFETPRAKAQMPTIERLSMTRYFYLFPGN
notes: Construct and tag not described
B2: IKKα (enzyme, UniProt O15111 1-745, looked up)
chain: MERPPGLRPGAGGPWEMRERLGTGGFGNVCLYQHRELDLKIAIKSCRLELSTKNRERWCHEIQIMKKLNHANVVKACDVPEELNILIHDVPLLAMEYCSGGDLRKLLNKPENCCGLKESQILSLLSDIGSGIRYLHENKIIHRDLKPENIVLQDVGGKIIHKIIDLGYAKDVDQGSLCTSFVGTLQYLAPELFENKPYTATVDYWSFGTMVFECIAGYRPFLHHLQPFTWHEKIKKKDPKCIFACEEMSGEVRFSSHLPQPNSLCSLVVEPMENWLQLMLNWDPQQRGGPVDLTLKQPRCFVLMDHILNLKIVHILNMTSAKIISFLLPPDESLHSLQSRIERETGINTGSQELLSETGISLDPRKPASQCVLDGVRGCDSYMVYLFDKSKTVYEGPFASRSLSDCVNYIVQDSKIQLPIIQLRKVWAEAVHYVSGLKEDYSRLFQGQRAAMLSLLRYNANLTKMKNTLISASQQLKAKLEFFHKSIQLDLERYSEQMTYGISSEKMLKAWKEMEEKAIHYAEVGVIGYLEDQIMSLHAEIMELQKSPYGRRQGDLMESLEQRAIDLYKQLKHRPSDHSYSDSTEMVKIIVHTVQSQDRVLKELFGHLSKLLGCKQKIIDLLPKVEVALSNIKEADNTVMFMQGKRQKEIWHLLKIACTQSSARSLVGSSLEGAVTPQTSAWLPPTSAEHDHSLSCVVTPQDGETSAQMIEENLNCLGHLSTIIHEANEEQGNSMMNLDWSWLTE
notes: Construct and tag not described for this test
B3: NIK (enzyme, UniProt Q99558 1-947, looked up)
chain: MAVMEMACPGAPGSAVGQQKELPKAKEKTPPLGKKQSSVYKLEAVEKSPVFCGKWEILNDVITKGTAKEGSEAGPAAISIIAQAECENSQEFSPTFSERIFIAGSKQYSQSESLDQIPNNVAHATEGKMARVCWKGKRRSKARKKRKKKSSKSLAHAGVALAKPLPRTPEQESCTIPVQEDESPLGAPYVRNTPQFTKPLKEPGLGQLCFKQLGEGLRPALPRSELHKLISPLQCLNHVWKLHHPQDGGPLPLPTHPFPYSRLPHPFPFHPLQPWKPHPLESFLGKLACVDSQKPLPDPHLSKLACVDSPKPLPGPHLEPSCLSRGAHEKFSVEEYLVHALQGSVSSGQAHSLTSLAKTWAARGSRSREPSPKTEDNEGVLLTEKLKPVDYEYREEVHWATHQLRLGRGSFGEVHRMEDKQTGFQCAVKKVRLEVFRAEELMACAGLTSPRIVPLYGAVREGPWVNIFMELLEGGSLGQLVKEQGCLPEDRALYYLGQALEGLEYLHSRRILHGDVKADNVLLSSDGSHAALCDFGHAVCLQPDGLGKSLLTGDYIPGTETHMAPEVVLGRSCDAKVDVWSSCCMMLHMLNGCHPWTQFFRGPLCLKIASEPPPVREIPPSCAPLTAQAIQEGLRKEPIHRVSAAELGGKVNRALQQVGGLKSPWRGEYKEPRHPPPNQANYHQTLHAQPRELSPRAPGPRPAEETTGRAPKLQPPLPPEPPEPNKSPPLTLSKEESGMWEPLPLSSLEPAPARNPSSPERKATVPEQELQQLEIELFLNSLSQPFSLEEQEQILSCLSIDSLSLSDDSEKNPSKASQSSRDTLSSGVHSWSSQAEARSSSWNMVLARGRPTDTPSYFNGVKVQIQSLNGEHLHIREFHRVKVGDIATGISSQIPAAAFSLVTKDGQPVRYDMEVPDSGIDLQCTLAPDGSFAWSWRVKHGQLENRP
notes: as for B1
B4: IKKβ (enzyme, UniProt O14920 1-756, looked up)
chain: MSWSPSLTTQTCGAWEMKERLGTGGFGNVIRWHNQETGEQIAIKQCRQELSPRNRERWCLEIQIMRRLTHPNVVAARDVPEGMQNLAPNDLPLLAMEYCQGGDLRKYLNQFENCCGLREGAILTLLSDIASALRYLHENRIIHRDLKPENIVLQQGEQRLIHKIIDLGYAKELDQGSLCTSFVGTLQYLAPELLEQQKYTVTVDYWSFGTLAFECITGFRPFLPNWQPVQWHSKVRQKSEVDIVVSEDLNGTVKFSSSLPYPNNLNSVLAERLEKWLQLMLMWHPRQRGTDPTYGPNGCFKALDDILNLKLVHILNMVTGTIHTYPVTEDESLQSLKARIQQDTGIPEEDQELLQEAGLALIPDKPATQCISDGKLNEGHTLDMDLVFLFDNSKITYETQISPRPQPESVSCILQEPKRNLAFFQLRKVWGQVWHSIQTLKEDCNRLQQGQRAAMMNLLRNNSCLSKMKNSMASMSQQLKAKLDFFKTSIQIDLEKYSEQTEFGITSDKLLLAWREMEQAVELCGRENEVKLLVERMMALQTDIVDLQRSPMGRKQGGTLDDLEEQARELYRRLREKPRDQRTEGDSQEMVRLLLQAIQSFEKKVRVIYTQLSKTVVCKQKALELLPKVEEVVSLMNEDEKTVVRLQEKRQKELWNLLKIACSKVRGPVSGSPDSMNASRLSQPGQLMSQPSTASNSLPEPAKKSEELVAEAHNLCTLLENAIQDTVREQDQSFTALDWSWLQTEEEEHSCLEQAS
notes: as for B2
B5: RIP (enzyme, UniProt Q13546 1-671, looked up)
chain: MQPDMSLNVIKMKSSDFLESAELDSGGFGKVSLCFHRTQGLMIMKTVYKGPNCIEHNEALLEEAKMMNRLRHSRVVKLLGVIIEEGKYSLVMEYMEKGNLMHVLKAEMSTPLSVKGRIILEIIEGMCYLHGKGVIHKDLKPENILVDNDFHIKIADLGLASFKMWSKLNNEEHNELREVDGTAKKNGGTLYYMAPEHLNDVNAKPTEKSDVYSFAVVLWAIFANKEPYENAICEQQLIMCIKSGNRPDVDDITEYCPREIISLMKLCWEANPEARPTFPGIEEKFRPFYLSQLEESVEEDVKSLKKEYSNENAVVKRMQSLQLDCVAVPSSRSNSATEQPGSLHSSQGLGMGPVEESWFAPSLEHPQEENEPSLQSKLQDEANYHLYGSRMDRQTKQQPRQNVAYNREEERRRRVSHDPFAQQRPYENFQNTEGKGTAYSSAASHGNAVHQPSGLTSQPQVLYQNNGLYSSHGFGTRPLDPGTAGPRVWYRPIPSHMPSLHNIPVPETNYLGNTPTMPFSSLPPTDESIKYTIYNSTGIQIGAYNYMEIGGTSSSLLDSTNTNFKEEPAAKYQAIFDNTTSLTDKHLDPIRENLGKHWKNCARKLGFTQSQIDEIDHDYERDGLKEKVYQMLQKWVMREGIKGATVGKLAQALHQCSRIDLLSSLIYVSQN
notes: as for B2
B6: caspase-1 (enzyme, UniProt P29466 1-404, looked up)
chain: MADKVLKEKRKLFIRSMGEGTINGLLDELLQTRVLNKEEMEKVKRENATVMDKTRALIDSVIPKGAQACQICITYICEEDSYLAGTLGLSADQTSGNYLNMQDSQGVLSSFPAPQAVQDNPAMPTSSGSEGNVKLCSLEEAQRIWKQKSAEIYPIMDKSSRTRLALIICNEEFDSIPRRTGAEVDITGMTMLLQNLGYSVDVKKNLTASDMTTELEAFAHRPEHKTSDSTFLVFMSHGIREGICGKKHSEQVPDILQLNAIFNMLNTKNCPSLKDKPKVIIIQACRGDSPGVVWFKDSVGVSGNLSLPTTEEFEDDAIKKAHIEKDFIAFCSSTPDNVSWRHPTMGSVFIGRLIEHMQEYACSCDVEEIFRKVRFSFEQPDGRAQMPTTERVTLTRCFYLFPGH
notes: as for B1
B7: TRADD (other, UniProt Q15628 1-312, looked up)
chain: MAAGQNGHEEWVGSAYLFVESSLDKVVLSDAYAHPQQKVAVYRALQAALAESGGSPDVLQMLKIHRSDPQLIVQLRFCGRQPCGRFLRAYREGALRAALQRSLAAALAQHSVPLQLELRAGAERLDALLADEERCLSCILAQQPDRLRDEELAELEDALRNLKCGSGARGGDGEVASAPLQPPVPSLSEVKPPPPPPPAQTFLFQGQPVVNRPLSLKDQQTFARSVGLKWRKVGRSLQRGCRALRDPALDSLAYEYEREGLYEQAFQLLRRFVQAEGRRATLQRLVEALEENELTSLAEDLLGLTDPNGGLA
notes: as for B1

The assay deals with T1, HA-tagged wild-type Nod2 (human, UniProt Q9HC29 1-1040).
T1 construct: Expressed by transfection in HEK293T cells and tested in cell lysates; also called wt Nod2; pcDNA3-Nod2-HA; not shown: HA tag
Put plainly: co-immunoprecipitation from co-transfected HEK293T cells. From the text: The CARD motif functions as an effector domain that mediates specific homophilic interaction with downstream CARD-containing molecules (Hofmann et al., Trends Biochem. Sci. 22: 155-156 [1997]).
For the molecule B1, the binding result is on record as “no binding”.

Regarding B2, the binding result is given as “no binding”.

As for B3, the binding result is on record as “no binding”.

Regarding B4, the binding result was “no binding”.

For B5, the binding result is given as “no binding”.

For the molecule B6, the binding result was “no binding”.

Regarding B7, the binding result is listed as “no binding”.
